Results on 1 molecule are retold here after patent publication US20240075157A1 (MAGENTA THERAPEUTICS, published 2024).

Test [1] deals with T1, hFcγR2B (human, UniProt P31994 46-217, tagged with biotin or histidine (which one is not stated for this receptor)).
T1 sequence (looked up): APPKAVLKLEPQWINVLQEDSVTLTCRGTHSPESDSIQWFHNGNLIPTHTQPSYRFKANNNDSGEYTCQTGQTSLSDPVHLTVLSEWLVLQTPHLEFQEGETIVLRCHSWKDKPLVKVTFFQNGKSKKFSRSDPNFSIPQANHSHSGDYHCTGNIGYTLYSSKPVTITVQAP
Briefly: BLI, Bio-hFcR2B.

Test [2] has as its target T1, hFcγR2B. As to the kind of experiment: BLI. For orientation: In BLI a coated tip is dipped into the sample, and binding shifts an interference pattern.
Description: (§1) To identify Fc modifications that abrogate Fc gamma receptor binding and thereby silence antibody effector functions, IgG antibodies containing one or more amino acid substitution in the Fc region were assessed in an Octet binding assay to measure their ability to bind to different Fc gamma receptors.
(§2) The binding assays were performed at 25° C. in phosphate buffered saline with (0.1% BSA, 0.02% Tween-20) using Bio-Layer Interferometry Device (ForteBio).
Test [3] addresses T2, hFcγR3A 176V (human, UniProt P08637 17-208, tagged with biotin or histidine (which one is not stated for this receptor)). Briefly: BLI.
Test [4] addresses T2, hFcγR3A 176V. Briefly: BLI, Bio-hFcR3A 176V.
Description: as §1, §2

T2 sequence (P08637 17-208 F176V limits assumed): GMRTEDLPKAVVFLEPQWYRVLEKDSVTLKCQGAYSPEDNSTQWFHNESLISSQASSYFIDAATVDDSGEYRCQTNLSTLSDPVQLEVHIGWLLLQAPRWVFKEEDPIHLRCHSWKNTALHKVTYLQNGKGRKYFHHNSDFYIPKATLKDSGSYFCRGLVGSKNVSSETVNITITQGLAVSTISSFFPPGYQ

B1: Ab2 D265C N297Q H435A (antibody, human IgG1, kappa, N297Q)
heavy: EVQLVQSGAEVKKPGESLKISCKGSGYSFTNYWIGWVRQMPGKGLEWMAIINPRDSDTRYRPSFQGQVTISADKSISTAYLQWSSLKASDTAMYYCARHGRGYEGYEGAFDIWGQGTLVTVSSASTKGPSVFPLAPSSKSTSGGTAALGCLVKDYFPEPVTVSWNSGALTSGVHTFPAVLQSSGLYSLSSVVTVPSSSLGTQTYICNVNHKPSNTKVDKKVEPKSCDKTHTCPPCPAPELLGGPSVFLFPPKPKDTLMISRTPEVTCVVVCVSHEDPEVKFNWYVDGVEVHNAKTKPREEQYQSTYRVVSVLTVLHQDWLNGKEYKCKVSNKALPAPIEKTISKAKGQPREPQVYTLPPSRDELTKNQVSLTCLVKGFYPSDIAVEWESNGQPENNYKTTPPVLDSDGSFFLYSKLTVDKSRWQQGNVFSCSVMHEALHNAYTQKSLSLSPGK
light: not shown
notes: copies: 2 + 2
With B1, the entries for the “Normalized Response” value in the test with hFcγR2B [1] and with hFcγR3A 176V [4] were 4 % of WT and 1 % of WT, respectively. Besides, the binding result with hFcγR2B [2] and with hFcγR3A 176V [3] was “no binding (tested: 300 nM)” throughout.
